According to PMC11750108, “FlbB forms a distinctive ring essential for periplasmic flagellar assembly and motility in Borrelia burgdorferi” (PLOS Pathogens, 2025):

Biological target: the molecule itself
Test: SEC-SAXS; purified FLAG-FlbB-His6 at 4 mg/ml, 10 mM HEPES, 140 mM NaCl, pH 7.3; Shodex 802.5 SEC column, SIBYLS beamline 12.3.1; molecular weight from the volume of correlation

B1: FLAG-FlbB-His6 (deleted the first 42 aa from the FlbB) (domain or fragment)
chain: FPEFVRTKLLGETSLVFDHNSNIILDEARLVKEREAIDIKNQQIEKLKEDLKLKEDSLNKLEFELKQKQKDLDLKQKVIDDIINKYNDEEANILQTAVYLMNMPPEDAVKRLEDLNPELAISYMRKIEELSKKEGRLSIVPYWLSLMDSKKAAILIRKMSVSSLE
notes: FlbB, periplasmic flagellar collar protein of Borrelia burgdorferi (205 amino acids); the first 42 aa (with the N-terminal transmembrane helix) deleted; The deletion of the first 42 aa is stated only for the SEC-SAXS sample; Monomer estimated at 20.85 kDa; also called FlbB-6His; source: E. coli codon plus cells; in lysate of mixed cells (pull-downs); purified recombinant (SEC-SAXS, far-western); …
stoichiometry N: 2
